Values of other authors, collected in publication PMC6767322.

Target: IL-2Rβ/γc (Homo sapiens) (UniProt P14784)
UniProt P14784, sequence (P14784 27-240, chain 1 of 2): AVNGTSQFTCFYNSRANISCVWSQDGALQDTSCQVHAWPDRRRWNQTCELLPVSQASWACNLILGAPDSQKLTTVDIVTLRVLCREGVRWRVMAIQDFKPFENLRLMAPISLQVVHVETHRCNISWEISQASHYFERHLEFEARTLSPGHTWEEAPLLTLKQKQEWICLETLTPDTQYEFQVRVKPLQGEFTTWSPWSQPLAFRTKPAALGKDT
UniProt P14784, sequence (P31785 23-262, chain 2 of 2, further chain): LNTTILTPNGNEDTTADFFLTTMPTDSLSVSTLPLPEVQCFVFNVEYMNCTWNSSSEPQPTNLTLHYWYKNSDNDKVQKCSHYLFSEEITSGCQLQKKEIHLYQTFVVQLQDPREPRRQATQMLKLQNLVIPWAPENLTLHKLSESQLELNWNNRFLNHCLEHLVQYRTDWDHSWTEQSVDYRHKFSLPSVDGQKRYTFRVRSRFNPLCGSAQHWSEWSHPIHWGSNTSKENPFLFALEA

Kd: 0.03 µM
Substance: IL-15 (from UniProt P40933)
